Target: complement component 9 (C9) (human)
Assay: cryo-EM structure; monomeric C9 polymerised in solution by overnight incubation at 1 mg/ml and 37 °C; single-particle cryo-EM of soluble poly-C9, 22-fold symmetry applied during refinement, about 5,000 particles, 8 Å

In the case of “complement component 9 (C9) (natural protein)”, the stoichiometry N is reported as 22.

Reference: paper PMC4742998
